The record followed here is patent publication US20170088610A1.

The target in test [1] is human nerve growth factor (human), P01138.
The target is the same in test [2]. The test can be described thus: cell-based or functional assay.
Test [3] has the same target. The source holds these as a separate data set.

Sequence of human nerve growth factor (human), P01138 (P01138 122-241 limits assumed): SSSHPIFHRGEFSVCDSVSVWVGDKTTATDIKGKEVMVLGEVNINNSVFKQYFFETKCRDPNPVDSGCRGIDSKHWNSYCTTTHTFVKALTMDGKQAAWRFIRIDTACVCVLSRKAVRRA

B1: antibody E3 (full antibody) (antibody, human IgG2, kappa)
heavy: QVQLQESGPGLVKPSETLSLTCTVSGFSLIGYDLNWIRQPPGKGLEWIGIIWGDGTTDYNSAVKSRVTISKDTSKNQFSLKLSSVTAADTAVYYCARGGYWYATSYYFDYWGQGTLVTVSSASTKGPSVFPLAPCSRSTSESTAALGCLVKDYFPEPVTVSWNSGALTSGVHTFPAVLQSSGLYSLSSVVTVPSSNFGTQTYTCNVDHKPSNTKVDKTVERKCCVECPPCPAPPVAGPSVFLFPPKPKDTLMISRTPEVTCVVVDVSHEDPEVQFNWYVDGVEVHNAKTKPREEQFNSTFRVVSVLTVVHQDWLNGKEYKCKVSNKGLPSSIEKTISKTKGQPREPQVYTLPPSREEMTKNQVSLTCLVKGFYPSDIAVEWESNGQPENNYKTTPPMLDSDGSFFLYSKLTVDKSRWQQGNVFSCSVMHEALHNHYTQKSLSLSPGK
light: not shown
modifications: not checked
For the molecule B1, the IC50 (read off the curve), NGF-dependent survival of E13.5 trigeminal neurons (0.4 ng/ml human NGF, 48 h) in test [1] amounted to 8 pM. Besides, the NGF-elicited survival of E17/18 trigeminal neurons in test [2] was 20 nM. Also, in test [3], the IC50 (read off the curve), NGF-dependent survival of E13.5 mouse trigeminal neurons (0.4 ng/ml human NGF, 48 h) (nM binding sites) was 0.02.
